T1: APBA2_1, Q99767
T1 sequence (Q99767 563-664, limits assumed, looked up): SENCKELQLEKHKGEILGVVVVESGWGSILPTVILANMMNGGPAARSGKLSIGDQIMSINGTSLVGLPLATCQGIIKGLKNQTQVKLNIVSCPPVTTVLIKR

T2: APBA3_1, O96018
T2 sequence (O96018 389-490, limits assumed, looked up): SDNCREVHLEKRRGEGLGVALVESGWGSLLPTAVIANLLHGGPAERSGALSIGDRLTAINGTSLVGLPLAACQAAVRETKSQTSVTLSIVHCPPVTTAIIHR

T3: ARHGEF11, O15085
T3 sequence (O15085 42-136, limits assumed, looked up): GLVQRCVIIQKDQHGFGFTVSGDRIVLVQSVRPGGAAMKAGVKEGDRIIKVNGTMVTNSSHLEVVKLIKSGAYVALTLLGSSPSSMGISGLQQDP

T4: CARD11, Q9BXL7
T4 sequence (Q9BXL7 662-765, limits assumed, looked up): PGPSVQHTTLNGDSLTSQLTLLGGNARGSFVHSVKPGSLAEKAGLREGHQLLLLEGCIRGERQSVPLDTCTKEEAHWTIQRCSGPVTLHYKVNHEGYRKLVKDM

T5: FRMPD1, Q5SYB0
T5 sequence (Q5SYB0 52-145, limits assumed, looked up): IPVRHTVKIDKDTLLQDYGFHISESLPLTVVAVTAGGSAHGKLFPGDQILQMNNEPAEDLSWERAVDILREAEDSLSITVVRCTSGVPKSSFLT

T6: HTRA3, P83110
T6 sequence (P83110 354-453, limits assumed, looked up): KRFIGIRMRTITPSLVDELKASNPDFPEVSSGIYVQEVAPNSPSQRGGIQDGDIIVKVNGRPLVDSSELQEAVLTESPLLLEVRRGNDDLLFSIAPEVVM

T7: MPP6, Q9NZW5
T7 sequence (Q9NZW5 125-219, limits assumed, looked up): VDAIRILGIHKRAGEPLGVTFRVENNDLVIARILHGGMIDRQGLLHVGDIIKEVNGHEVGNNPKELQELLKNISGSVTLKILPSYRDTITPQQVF

T8: MPP7, Q5T2T1
T8 sequence (Q5T2T1 134-230, limits assumed, looked up): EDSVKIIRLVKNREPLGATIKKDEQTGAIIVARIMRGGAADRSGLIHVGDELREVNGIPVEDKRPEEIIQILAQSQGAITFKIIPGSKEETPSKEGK

T9: NHERF3_4, Q5T2W1
T9 sequence (Q5T2W1 373-468, limits assumed, looked up): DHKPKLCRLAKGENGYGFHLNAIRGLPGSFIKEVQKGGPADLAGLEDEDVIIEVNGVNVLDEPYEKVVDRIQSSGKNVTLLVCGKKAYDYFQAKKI

T10: PDZD7_3, Q9H5P4
T10 sequence (Q9H5P4 857-944, limits assumed, looked up): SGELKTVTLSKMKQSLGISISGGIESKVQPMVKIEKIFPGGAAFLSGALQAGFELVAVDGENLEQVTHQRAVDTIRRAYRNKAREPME

T11: RHPN1, Q8TCX5
T11 sequence (Q8TCX5 508-602, limits assumed, looked up): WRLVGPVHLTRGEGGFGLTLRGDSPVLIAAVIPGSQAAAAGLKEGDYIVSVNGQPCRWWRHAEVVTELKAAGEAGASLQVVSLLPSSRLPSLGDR

T12: SNTA1, Q13424
T12 sequence (Q13424 82-180, limits assumed, looked up): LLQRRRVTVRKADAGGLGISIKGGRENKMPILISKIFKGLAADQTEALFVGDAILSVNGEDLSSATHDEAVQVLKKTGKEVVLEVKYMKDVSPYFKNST

T13: SNTG1, Q9NSN8
T13 sequence (Q9NSN8 52-150, limits assumed, looked up): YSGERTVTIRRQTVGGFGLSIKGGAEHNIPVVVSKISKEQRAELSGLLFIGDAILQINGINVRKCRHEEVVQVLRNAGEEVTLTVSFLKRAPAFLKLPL

T14: TJP3_3, O95049
T14 sequence (O95049 375-456, limits assumed, looked up): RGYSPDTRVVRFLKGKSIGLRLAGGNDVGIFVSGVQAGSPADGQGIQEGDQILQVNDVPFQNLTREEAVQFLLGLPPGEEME

T15: TX1BP3, O14907
T15 sequence (O14907 10-122, limits assumed, looked up): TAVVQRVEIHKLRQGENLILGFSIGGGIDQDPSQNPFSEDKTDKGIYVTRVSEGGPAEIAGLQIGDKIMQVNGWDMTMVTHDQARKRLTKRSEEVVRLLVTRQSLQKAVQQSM


Legend:
Assay in all cases: holdup assay
Parameters in all cases: key: below the threshold = too weak to quantify, mostly under pKd 3.1 to 4
Details in all cases: plain residues with an end cap or a label only (N-terminal biotin on a linker: ado-ado)
APBA2_1, Q99767 = target: T1, APBA2_1, Q99767
APBA3_1, O96018 = target: T2, APBA3_1, O96018
ARHGEF11, O15085 = target: T3, ARHGEF11, O15085
CARD11, Q9BXL7 = target: T4, CARD11, Q9BXL7
CASK, O14936 = target: CASK, O14936
FRMPD1, Q5SYB0 = target: T5, FRMPD1, Q5SYB0
FRMPD2_1, Q68DX3 = target: FRMPD2_1, Q68DX3
GRIP2_4, Q9C0E4 = target: GRIP2_4, Q9C0E4
GRIP2_7, Q9C0E4 = target: GRIP2_7, Q9C0E4
HTRA3, P83110 = target: T6, HTRA3, P83110
MAGI1_1, Q96QZ7 = target: MAGI1_1, Q96QZ7
MAGI2_6, Q86UL8 = target: MAGI2_6, Q86UL8
MPP6, Q9NZW5 = target: T7, MPP6, Q9NZW5
MPP7, Q5T2T1 = target: T8, MPP7, Q5T2T1
NHERF3_4, Q5T2W1 = target: T9, NHERF3_4, Q5T2W1
PDZD7_3, Q9H5P4 = target: T10, PDZD7_3, Q9H5P4
RHPN1, Q8TCX5 = target: T11, RHPN1, Q8TCX5
SNTA1, Q13424 = target: T12, SNTA1, Q13424
SNTG1, Q9NSN8 = target: T13, SNTG1, Q9NSN8
TJP1_2, Q07157 = target: TJP1_2, Q07157
TJP3_3, O95049 = target: T14, TJP3_3, O95049
TX1BP3, O14907 = target: T15, TX1BP3, O14907

MAGI2_6, Q86UL8, sequence (Q86UL8 1141-1229): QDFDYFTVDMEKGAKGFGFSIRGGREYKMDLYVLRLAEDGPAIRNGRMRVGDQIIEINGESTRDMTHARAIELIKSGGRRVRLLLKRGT
GRIP2_7, Q9C0E4, sequence (Q9C0E4 934-1023): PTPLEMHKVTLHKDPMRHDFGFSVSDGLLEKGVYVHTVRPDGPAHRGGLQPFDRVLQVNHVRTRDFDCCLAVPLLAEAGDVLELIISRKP
GRIP2_4, Q9C0E4, sequence (Q9C0E4 446-548): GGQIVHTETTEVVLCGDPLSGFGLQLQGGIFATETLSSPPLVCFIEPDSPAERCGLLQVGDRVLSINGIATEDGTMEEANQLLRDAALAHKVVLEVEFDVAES
FRMPD2_1, Q68DX3, sequence (Q68DX3 770-861): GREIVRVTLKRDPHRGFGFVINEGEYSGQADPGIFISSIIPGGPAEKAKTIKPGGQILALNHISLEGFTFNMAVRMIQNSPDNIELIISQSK
CASK, O14936, sequence (O14936 487-570): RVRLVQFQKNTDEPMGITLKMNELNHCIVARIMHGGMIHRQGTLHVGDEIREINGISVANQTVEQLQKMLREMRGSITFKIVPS
TJP1_2, Q07157, sequence (Q07157 181-274): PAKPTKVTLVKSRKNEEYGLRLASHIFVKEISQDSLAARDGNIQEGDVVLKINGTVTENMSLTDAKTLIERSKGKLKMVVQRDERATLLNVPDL
MAGI1_1, Q96QZ7, sequence (Q96QZ7 1-106): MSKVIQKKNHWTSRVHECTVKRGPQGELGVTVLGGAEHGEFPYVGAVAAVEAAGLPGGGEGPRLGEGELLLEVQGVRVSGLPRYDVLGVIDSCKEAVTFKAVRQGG

Row | Binder | pKd (APBA2_1, Q99767) | pKd (APBA3_1, O96018) | pKd (ARHGEF11, O15085) | pKd (CARD11, Q9BXL7) | pKd (CASK, O14936) | pKd (FRMPD1, Q5SYB0) | pKd (FRMPD2_1, Q68DX3) | pKd (GRIP2_4, Q9C0E4) | pKd (GRIP2_7, Q9C0E4) | pKd (HTRA3, P83110) | pKd (MAGI1_1, Q96QZ7) | pKd (MAGI2_6, Q86UL8) | pKd (MPP6, Q9NZW5) | pKd (MPP7, Q5T2T1) | pKd (NHERF3_4, Q5T2W1) | pKd (PDZD7_3, Q9H5P4) | pKd (RHPN1, Q8TCX5) | pKd (SNTA1, Q13424) | pKd (SNTG1, Q9NSN8) | pKd (TJP1_2, Q07157) | other results
1 | AAVENKVTDL [PLXNB1, O43157] | below the threshold | below the threshold | 4.65 | below the threshold | below the threshold | below the threshold | below the threshold | below the threshold | below the threshold | below the threshold | below the threshold | 4.99 | below the threshold | below the threshold | 3.47 | 4.91 | 4.17 | 4.33 | 3.74 | below the threshold | pKd (TJP3_3, O95049): below the threshold; pKd (TX1BP3, O14907): 4.77
2 | PYPTADHMLA [JUP, P14923] | below the threshold | below the threshold | below the threshold | below the threshold | below the threshold | below the threshold | below the threshold | below the threshold | below the threshold | below the threshold | below the threshold | below the threshold | below the threshold | below the threshold | below the threshold | below the threshold | below the threshold | below the threshold | below the threshold | below the threshold | pKd (TJP3_3, O95049): below the threshold; pKd (TX1BP3, O14907): 4.01
3 | TGLWKHETTV [ADGRA3, Q8IWK6] | below the threshold | below the threshold | 4.31 | below the threshold | below the threshold | below the threshold | below the threshold | below the threshold | below the threshold | below the threshold | below the threshold | 3.86 | below the threshold | below the threshold | below the threshold | 4.99 | 4.44 | 4.58 | 4.46 | below the threshold | pKd (TJP3_3, O95049): below the threshold; pKd (TX1BP3, O14907): 5.08
4 | QKAPTKEFYA [SDC2, P34741] | below the threshold | below the threshold | below the threshold | below the threshold | below the threshold | below the threshold | 4.1 | below the threshold | below the threshold | 4.31 | below the threshold | below the threshold | below the threshold | below the threshold | 3.82 | below the threshold | below the threshold | below the threshold | below the threshold | below the threshold | pKd (TJP3_3, O95049): below the threshold; pKd (TX1BP3, O14907): below the threshold
